The values below are quoted from earlier work in article PMC2803043.

For orientation: Kd means the equilibrium constant for the complex coming apart.

The target in the data set is Frizzled (Drosophila melanogaster) (UniProt P18537).
Chain of UniProt P18537 (P18537 19-581): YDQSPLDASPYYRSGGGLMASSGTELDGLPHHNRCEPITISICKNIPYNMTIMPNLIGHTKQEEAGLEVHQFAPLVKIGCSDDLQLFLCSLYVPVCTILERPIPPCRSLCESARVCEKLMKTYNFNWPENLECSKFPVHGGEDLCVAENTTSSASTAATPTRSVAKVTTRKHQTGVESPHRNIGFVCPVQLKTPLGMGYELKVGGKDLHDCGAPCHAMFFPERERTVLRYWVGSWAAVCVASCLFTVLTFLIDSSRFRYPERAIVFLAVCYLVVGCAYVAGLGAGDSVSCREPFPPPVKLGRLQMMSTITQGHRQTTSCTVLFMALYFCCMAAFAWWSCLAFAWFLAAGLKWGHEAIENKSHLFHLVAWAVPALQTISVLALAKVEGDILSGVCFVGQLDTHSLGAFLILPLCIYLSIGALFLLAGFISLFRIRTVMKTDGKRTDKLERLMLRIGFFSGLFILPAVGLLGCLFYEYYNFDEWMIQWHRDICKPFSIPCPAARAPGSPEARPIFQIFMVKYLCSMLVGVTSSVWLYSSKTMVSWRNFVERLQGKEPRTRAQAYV

Turning to Dishevelled PDZ (from UniProt P51140), the Kd is 10 µM.
